US20120171122A1 (published 2012)
No end group written: not given here. *: point of attachment. Biotin = O=C1N[C@H]2[C@H](CS[C@H]2CCCCC(=O)*)N1

Target: T1, N-terminally biotinylated peptide HRRSARYLDTVL
T1 construct: Captured through its biotin on streptavidin coated onto the ELISA wells; also called ligand of NHERF PDZ1 mutant H9
T1 peptide: Biotin-HRRSARYLDTVL
Test: ELISA; serial dilutions of GST-PDZ fusion on biotinylated peptide captured on streptavidin-coated wells; anti-His HRP detection
Protocol: The GST-PDZ fusion protein expressed by clone H2 was partially characterized. The DNA of clone H2 was transformed into E. coli strain BL21 [DE3] and the resulting transformant induced in 1 mL culture volume using 0.1 mM IPTG for 2.5 hours at 30° C. with shaking at 300 rpm. The cells were harvested from the culture medium and lysed using BugBuster (Novagen). Batch affinity purification was carried out using 50 μl of glutathione affinity resin (Novagen), eluting the bound protein in reduced glutathione elution buffer. […] The eluted protein was tested by ELISA for binding to N-terminally biotinylated peptide […] (SEQ ID NO: 14) bound to 0.1 μg of streptavidin coated onto each well of an ELISA plate. Serial dilutions of the protein were added to wells in which the peptide was present or absent (negative controls) and immuno-detection of a C-terminal hexahistidine tag provided by the modified pGEX-2TK vector was carried out using a horseradish peroxidase-conjugated antibody (Roche).

B1: GST-PDZ fusion protein expressed by clone H2 (NHERF PDZ1 loop-variant H2, CHPQFC inserted in loop β23 of NHERF PDZ1 mutant H9) (designed binder, not shown: a dimerising Fc or GST; large carriers; small tags and cut ends)
chain: LPRLCCLEKGPNGYGFHLHGEKGCHPQFCKVGQYIGLVVPGSPAEKAGLLAGDRLVEVNGENVEKETHQQVVSRIRAALNAVCLLVVDPE
notes: Partially purified on glutathione resin from induced E. coli BL21[DE3]; also called PDZ loop-variant H2; NHERF PDZ loop-variant H2
**Q.** Does B1 bind?
**A.** binds
